The text below walks through data of the Immune Epitope Database (IEDB).

For assay [1], the target named is HLA-B*07:02. Briefly: IEDB peptide-MHC binding, purified MHC/competitive/fluorescence; ≥ and ≤ were set here for values at or beyond the usual limits of such assays.
The target of another assay is HLA-B*58:01. Put plainly: IEDB peptide-MHC binding, purified MHC/competitive/radioactivity; filed as Kd, often an IC50 or EC50 that approximates it; ≥ and ≤ were set here for values at or beyond the usual limits of such assays.
For the next assay, the target named is HLA-B*57:01. The assay is described as above.
The next assay deals with HLA-B*18:01. Briefly: IEDB peptide-MHC binding, purified MHC/direct/fluorescence; filed as Kd, often an IC50 or EC50 that approximates it; ≥ and ≤ were set here for values at or beyond the usual limits of such assays. The note with it: source organism: Amur virus.
Another assay deals with HLA-B*40:01. Described as above. The note with it: source organism: Amur virus.
In another assay the target is HLA-B*15:42. Put plainly: IEDB peptide-MHC binding, purified MHC/competitive/fluorescence; filed as Kd, often an IC50 or EC50 that approximates it; ≥ and ≤ were set here for values at or beyond the usual limits of such assays. The conditions noted are these: source organism: Orthohantavirus puumalaense.
The target in a further assay is HLA-B*45:06. Described as above. The note with it: source organism: Orthohantavirus puumalaense.
The next assay addresses HLA-B*83:01. Described as above. The note with it: source organism: Orthohantavirus puumalaense.
Assay [2] has as its target HLA-B*07:02. Put plainly: IEDB peptide-MHC binding, purified MHC/competitive/radioactivity; filed as Kd, often an IC50 or EC50 that approximates it; ≥ and ≤ were set here for values at or beyond the usual limits of such assays. The note with it: source organism: Vaccinia virus WR.
In the next assay the target is HLA-A*02:02. The assay is described as above. The note with it: source organism: Vaccinia virus WR.
For the next assay, the target named is HLA-B*54:01. Described as above. The conditions noted are these: source organism: Vaccinia virus WR.
For assay [3], the target named is HLA-A*02:03. The description is as above. The note with it: source organism: Vaccinia virus WR.
Another assay deals with HLA-B*35:01. The description is as above. The conditions noted are these: source organism: Vaccinia virus WR.
The next assay addresses HLA-B*53:01. The description is as above.
Another assay concerns the target HLA-A*02:06. Described as above. The conditions noted are these: source organism: Vaccinia virus WR.
The target in a further assay is HLA-A*68:02. The assay is described as above. The note with it: source organism: Vaccinia virus WR.
Another assay addresses HLA-B*51:01. The assay is described as above. The conditions noted are these: source organism: Vaccinia virus WR.
Assay [4] has as its target HLA-A*02:01. Described as above. The note with it: source organism: Vaccinia virus WR.
Another assay deals with HLA-A*69:01. Put plainly: IEDB peptide-MHC binding, purified MHC/direct/fluorescence; filed as Kd, often an IC50 or EC50 that approximates it; ≥ and ≤ were set here for values at or beyond the usual limits of such assays. The conditions noted are these: source organism: Mycobacterium tuberculosis.
Assay [5] has as its target HLA-A*02:03. Described as above. The note with it: source organism: Mycobacterium tuberculosis str. Haarlem.
The target in assay [6] is HLA-A*11:01. Put plainly: IEDB peptide-MHC binding, purified MHC/competitive/radioactivity; filed as Kd, often an IC50 or EC50 that approximates it; ≥ and ≤ were set here for values at or beyond the usual limits of such assays. The note with it: source organism: Dengue virus 3 Martinique/1243/1999.
The target of another assay is HLA-A*24:03. Put plainly: IEDB peptide-MHC binding, purified MHC/competitive/fluorescence; filed as Kd, often an IC50 or EC50 that approximates it; ≥ and ≤ were set here for values at or beyond the usual limits of such assays. The conditions noted are these: source organism: Escherichia coli F11.
For another assay, the target named is HLA-B*15:01. Put plainly: IEDB peptide-MHC binding, purified MHC/competitive/fluorescence; ≥ and ≤ were set here for values at or beyond the usual limits of such assays.
In the next assay the target is HLA-A*24:02. The assay is described as above.
Assay [7] concerns the target HLA-A*11:01. The description is as above. The conditions noted are these: source organism: Sudan ebolavirus.
Assay [8] has as its target HLA-A*02:01. Described as above.
In the next assay the target is HLA-A*30:01. Briefly: IEDB peptide-MHC binding, purified MHC/competitive/radioactivity; filed as Kd, often an IC50 or EC50 that approximates it; ≥ and ≤ were set here for values at or beyond the usual limits of such assays. The note with it: source organism: Dengue virus 2 Jamaica/1409/1983.
[9] abbreviates: source organism: Dengue virus 2 Jamaica/1409/1983.
[10] abbreviates: source organism: Dengue virus 3 Martinique/1243/1999.
Setting [11] is: source organism: Dengue virus 1 Singapore/S275/1990.
Where [12] appears, read: source organism: Zaire ebolavirus.
Where [13] appears, read: source organism: Dengue virus 4 Philippines/H241/1956.
[14] abbreviates: source organism: Sudan ebolavirus.
[15] abbreviates: source organism: Vaccinia virus.

In general, IC50 refers to the point on the concentration scale where inhibition reaches its midpoint. A high value points to weaker potency in that assay. In the assay with HLA-B*07:02 [1] (source organism: H1N1 subtype Influenza A/Oklahoma/7485/01), AAEAMEVA had an IC50 of at least 1000 µM.

By Kd is commonly meant the free concentration of one partner at which half of the binding sites on the other are occupied at equilibrium, for simple one-to-one binding. As for AASIILEFFL, the Kd came to 0.366 µM with HLA-B*58:01 (setting [9]) and 2.27 µM with HLA-B*57:01 (setting [9]).

AELGAFFSI: the Kd with HLA-B*18:01 is 0.0408 µM; with HLA-B*40:01, at most 0.001 µM; with HLA-B*15:42 it was at least 5 µM; with HLA-B*45:06, at least 5 µM; with HLA-B*83:01, at least 5 µM.

For AFEFINSLLK, the equilibrium dissociation constant (Kd) is at least 69.6 µM in the assay with HLA-B*07:02 [2]; 5.48 µM in the assay with HLA-A*02:02; at least 69.9 µM with HLA-B*54:01; at least 20.6 µM with HLA-A*02:03 [3]; at least 69.9 µM with HLA-B*35:01; at least 69.9 µM with HLA-B*53:01 (source organism: Vaccinia virus WR). The Kd is at least 42.8 µM with HLA-A*02:06, 11.5 µM with HLA-A*68:02, at least 69.6 µM with HLA-B*51:01 and 12.1 µM with HLA-A*02:01 [4].

Consider ALLENIHRV, for which the Kd is 0.0473 µM with HLA-A*69:01 and 0.002 µM with HLA-A*02:03 [5].

For the sequence ASSMINGVVK, the equilibrium dissociation constant (Kd) was found to be 1.3 µM with HLA-B*58:01 (setting [10]), 15.7 µM in the assay with HLA-B*57:01 (setting [10]) and 0.0392 µM with HLA-A*11:01 [6].

Turning to FWPQHFGLI, the dissociation constant (Kd) with HLA-A*24:03 was 0.0004 µM.

On to GASHNILVEV, for which the dissociation constant Kd with HLA-B*58:01 (setting [11]) is 9.64 µM; in the assay with HLA-B*57:01 (setting [11]), 0.785 µM.

Regarding GGWRLSAQW, the Kd in the assay with HLA-B*57:01 (setting [10]) is 0.179 µM.

In the assay with HLA-B*07:02 [1] (setting [12]), GPHRTIHHA came in with an IC50 of 5.75 µM.

In the assay with HLA-B*15:01 (setting [12]), GQSPARTSS came in with a half-inhibitory concentration (IC50) of 26 µM.

As to GTSETFSMGL, in the assay with HLA-B*57:01 (setting [13]), the dissociation constant Kd was found to be 13.5 µM.

For the sequence HTPQFLFQL, the IC50 is at least 78.8 µM in the assay with HLA-B*07:02 [1] (setting [14]), 1.11 µM with HLA-A*24:02 (setting [14]), at least 166 µM with HLA-A*11:01 [7] and 2.73 µM with HLA-A*02:01 [8] (setting [14]).

Regarding IASLVMLLVH, the dissociation constant Kd with HLA-B*58:01 (setting [13]) worked out at 1.73 µM; with HLA-B*57:01 (setting [13]), 0.435 µM.

As for IGIGVLLTW, the figures for the Kd in the assay with HLA-B*58:01 (setting [10]), in the assay with HLA-B*57:01 (setting [10]) and with HLA-B*53:01 (setting [10]) were 0.0116 µM, 0.192 µM and 1.14 µM, respectively.

On to IGLAWIPYF, for which the figures for the IC50 with HLA-B*15:01 (setting [12]) and with HLA-A*02:01 [8] (setting [12]) were at least 153 µM and 5.68 µM, respectively.

For ILRSLETDL, the 50% inhibitory concentration (IC50) in the assay with HLA-B*15:01 (setting [15]) was 58.9 µM; with HLA-A*02:01 [8] (setting [15]), 22 µM.

For IQVHAEQGL, the 50% inhibitory concentration (IC50) with HLA-B*15:01 (setting [12]) was 33 µM; with HLA-A*02:01 [8] (setting [12]) it was at least 105 µM.

Consider IRGFPRCRY, for which the IC50 with HLA-A*24:02 (setting [12]) was 66 µM; with HLA-B*15:01 (setting [12]) it was at least 242 µM.

With ISSTPLAENT, in the assay with HLA-B*58:01 (source organism: Dengue virus 4 Dominica/814669/1981), the Kd is 0.951 µM.

Consider KARSTPFNM, for which the Kd in the assay with HLA-B*58:01 (setting [9]) turned out to be 0.194 µM; in the assay with HLA-A*30:01, 0.169 µM.

Take KHAQRIETW: the Kd with HLA-B*58:01 (source organism: Dengue virus 2 Peru/IQT2913/1996) amounted to 0.482 µM.
